Changes are numbered by the printed parent chain.

The target of one test is T1, Human ASGR-2 (human, UniProt P07307 1-311).
T1 construct: Expressed on HEK 293 cells; cDNA GenBank NM_080913.3; also called huASGR-2; hASGR-2
T1 sequence: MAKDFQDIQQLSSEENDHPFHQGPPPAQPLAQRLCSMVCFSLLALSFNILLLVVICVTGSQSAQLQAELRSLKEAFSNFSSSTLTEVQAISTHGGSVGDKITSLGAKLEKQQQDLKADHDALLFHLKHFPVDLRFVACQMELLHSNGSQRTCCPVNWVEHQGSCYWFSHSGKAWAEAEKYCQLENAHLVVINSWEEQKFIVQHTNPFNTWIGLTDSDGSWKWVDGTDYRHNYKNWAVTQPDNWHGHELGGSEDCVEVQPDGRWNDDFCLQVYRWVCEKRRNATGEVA
Put plainly: FACS on transfected HEK 293 cells; binding = signal at least 2x irrelevant IgG. The protocol:
(§1) Human ASGR-1-specific, ligand competing antibody samples were tested for binding to ASGR-1 from other species (cynomologus monkey ASGR-1, mouse ASGR-1, rat ASGR-1, dog ASGR-1, and pig ASGR-1) as well as to human ASGR-2 in FACS binding assays at normalized antibody concentrations. For cell-based assays, HEK 293 cells expressing the appropriate antigen of interest were mixed with antibody sample or controls, incubated for 1 hour at 4° C., and then washed twice. Cells with bound antibody were then incubated with Alexa Fluor® 647 IgG Fc fragment-specific detection antibody and 7-AAD viability stain for 15 minutes at 4° C., washed once and resuspended in FACS buffer. Samples were analyzed using a BD Accuri™ Flow Cytometer and an Intellicyt HyperCyt Autosampler. As a negative control, supernatants and controls were also screened against HEK 293 cells transfected with empty parental vector. […] For membrane-prep binding assays, ASGR-1 species specific membrane preps were used to coat LumAvidin® microspheres (beads) and tested for binding to selected hybridoma supernatants or controls. Briefly, ASGR-1 species specific membrane preps were incubated with streptavidin-coated LumAvidin® beads for 45 minutes in the dark at room temperature and washed twice. Beads were resuspeneded in FACS buffer containing Stabilguard®. Antigen-bound beads were then incubated with normalized antibody sample for 1 hour in the dark at room temperature, washed twice, incubated with Alexa Fluor® 488 IgG Fc fragment-specific detection antibody for 15 minutes in the dark at room temperature, washed once and finally resuspended in FACS buffer. Samples were analyzed using an Intellicyt iQue™ Screener Platform. FACS buffer supplemented with 1 mM Calcium Chloride was used in all steps. As a negative control, supernatants and controls were also screened against a non-ASGR-1 antigen membrane prep coated on the LumAvidin® beads.

The next test has as its target T2, Cyno ASGR-1 (cynomolgus monkey, UniProt P07306 1-291 (human entry)).
T2 construct: Expressed on HEK 293 cells or as membrane prep on beads; cDNA from XP_005582755; also called cynomologus monkey ASGR-1
T2 chain: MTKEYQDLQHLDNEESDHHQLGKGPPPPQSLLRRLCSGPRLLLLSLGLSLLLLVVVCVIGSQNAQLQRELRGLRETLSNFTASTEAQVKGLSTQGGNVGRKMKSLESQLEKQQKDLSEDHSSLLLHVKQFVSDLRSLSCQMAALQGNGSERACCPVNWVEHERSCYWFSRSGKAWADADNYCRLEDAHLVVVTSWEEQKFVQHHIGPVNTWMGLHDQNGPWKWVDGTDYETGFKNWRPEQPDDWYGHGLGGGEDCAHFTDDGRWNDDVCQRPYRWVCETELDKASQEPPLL
Kind of test: FACS on transfected HEK 293 cells or membrane preps on beads; Y = signal at least 2x irrelevant IgG. The protocol: as §1

A further test has as its target T3, Mouse ASGR-1 (mouse, UniProt P34927 1-284).
T3 construct: Expressed on HEK 293 cells or as membrane prep on beads; cDNA GenBank BC022106.1; also called muASGR-1; mASGR-1
T3 sequence: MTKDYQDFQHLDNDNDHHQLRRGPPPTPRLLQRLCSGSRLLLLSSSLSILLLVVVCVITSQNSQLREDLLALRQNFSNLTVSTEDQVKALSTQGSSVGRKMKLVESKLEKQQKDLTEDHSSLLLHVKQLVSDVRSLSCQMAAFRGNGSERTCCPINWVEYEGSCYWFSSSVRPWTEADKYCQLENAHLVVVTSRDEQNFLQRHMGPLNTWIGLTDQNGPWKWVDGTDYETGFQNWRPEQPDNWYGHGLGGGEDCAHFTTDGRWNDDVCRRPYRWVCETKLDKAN
Put plainly: FACS on transfected HEK 293 cells or membrane preps on beads; binding = signal at least 2x irrelevant IgG. How it is done:
as §1

The target of the next test is T4, Rat ASGR-1 (rat, UniProt P02706 1-284).
T4 construct: Expressed on HEK 293 cells or as membrane prep on beads; cDNA GenBank NM_012503
T4 sequence: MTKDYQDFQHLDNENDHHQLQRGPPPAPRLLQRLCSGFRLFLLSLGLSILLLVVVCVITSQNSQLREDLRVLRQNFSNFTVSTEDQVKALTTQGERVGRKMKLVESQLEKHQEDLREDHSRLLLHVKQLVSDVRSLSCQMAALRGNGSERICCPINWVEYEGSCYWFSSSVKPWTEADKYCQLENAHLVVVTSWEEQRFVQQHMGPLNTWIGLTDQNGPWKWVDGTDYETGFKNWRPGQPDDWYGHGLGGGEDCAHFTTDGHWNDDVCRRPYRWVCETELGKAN
The description is as above. The protocol: as §1

The target of the next test is T5, Pig ASGR-1 (pig).
T5 construct: Expressed on HEK 293 cells or as membrane prep on beads; cDNA GenBank NM_001244458
T5 chain: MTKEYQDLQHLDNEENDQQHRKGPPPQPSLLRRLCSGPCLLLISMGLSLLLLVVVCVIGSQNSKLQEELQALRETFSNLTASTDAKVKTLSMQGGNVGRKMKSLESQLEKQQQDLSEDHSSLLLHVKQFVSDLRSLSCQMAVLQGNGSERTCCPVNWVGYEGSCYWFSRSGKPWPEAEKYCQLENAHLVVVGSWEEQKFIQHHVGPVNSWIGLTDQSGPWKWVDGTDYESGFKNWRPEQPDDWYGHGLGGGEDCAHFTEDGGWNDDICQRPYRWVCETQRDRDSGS
Put plainly: FACS on transfected HEK 293 cells or membrane preps on beads; Y = signal at least 2x irrelevant IgG. How it is done:
as §1

B1: 54E9 (antibody, V domains shown)
VH: QVQLVQSGAEVKKPGASVKVSCKASGYTFNSYGISWVRLAPGQGLEWMGWISAYNGNTKNAQKLQGRVTMTTDTSTSTAYMELRSLRSDDTAVYYCARHDFWSGYYKGMDVWGQGTTVTVSS
VL: not shown
notes: Tested as hybridoma supernatant at normalized concentration
With B1, the binding result with Human ASGR-2 was “no binding”; with Cyno ASGR-1, “binds”; with Mouse ASGR-1 it was “no binding”; in the test with Rat ASGR-1, “no binding”.

B2: 190F8 (antibody, V domains shown)
VH: QVQLVESGGGVVQPGRSLRLSCAASGFTFSTYGMHWVRQAPGKGLEWVAVIWYDGSNKNYADSVKGRFTISRDNSKNTLYLQMNSLRAEDTAVYYCARDQGVGYDGLDVWGQGTTVTVSS
VL: DIQMTQSPSSLSASVGDRVTITCRTSQGIGNYLAWFQQKPGKAPKSLLYKASSLQSGVPSKFSGSGSGTDFTLTISSLQPEDFATYYCQQYMTYPLTFGGGTKVEIK
notes: as for B1
As for B2, the binding result is “no binding” with Human ASGR-2; “binds” with Cyno ASGR-1; “binds” in the test with Pig ASGR-1; “no binding” with Mouse ASGR-1; “no binding” with Rat ASGR-1.

B3: 197G3 (antibody, V domains shown)
VH: B2 VH with A23V, T31S, Y32H, Q100P, G101S, L107M
VL: DIQMTQSPSSLSASVGDRVTITCRASQGIGNHLAWFQQKPGKAPKSLIYAASSLQSGVPSKFSGSRSGTDFSLTISSLQPEDFATYYCQQYSNYPVTFGPGTKVDIK
notes: as for B1
Take B3: the binding result in the test with Human ASGR-2 was “no binding”; with Cyno ASGR-1, “binds”; with Pig ASGR-1 it was “binds”; with Mouse ASGR-1, “no binding”; with Rat ASGR-1 it was “no binding”.

B4: 194C1 (antibody, V domains shown)
VH: B2 VH with T31S, K58E, N59H, D99N, Q100R, D105Y
VL: B2 VL with T25A, G30S, L48I, K50A, Q89L, Q90H, M92L
notes: as for B1
With B4, the binding result with Human ASGR-2 was “no binding”; in the test with Cyno ASGR-1, “binds”; with Pig ASGR-1, “binds”; with Mouse ASGR-1, “no binding”; with Rat ASGR-1, “no binding”.

B5: 191G10 (antibody, V domains shown)
VH: B2 VH with T31S
VL: B2 VL with N31K, A51V
notes: as for B1
For B5, the binding result in the test with Human ASGR-2 is “no binding”; in the test with Cyno ASGR-1, “binds”; with Pig ASGR-1 it was “binds”; in the test with Mouse ASGR-1, “no binding”; in the test with Rat ASGR-1 it was “no binding”.

B6: 191G1 (antibody, V domains shown)
VH: B2 VH with T31S, K58E, N59H, Q100R, D105Y
VL: B2 VL with T25A, G30S, L48I, K50A, Q90H, M92L
notes: as for B1
With B6, the binding result is listed as “no binding” with Human ASGR-2; “binds” with Cyno ASGR-1; “binds” with Pig ASGR-1; “no binding” with Mouse ASGR-1; “no binding” with Rat ASGR-1.

B7: 198G3 (antibody, V domains shown)
VH: B2 VH with R19K, S56T, Y80C
VL: B2 VL with T5A, N31K, S56G
notes: as for B1
Turning to B7, the binding result with Human ASGR-2 is given as “no binding”; in the test with Cyno ASGR-1, “binds”; with Pig ASGR-1 it was “binds”; in the test with Mouse ASGR-1, “no binding”; in the test with Rat ASGR-1, “no binding”.

B8: 193E7 (antibody, V domains shown)
VH: QVQLQQWGAGLLKPSETLSLTCAVYGGSFSGYFWTWIRQPPGKGLEWIGEINHSGSTNYNPSLKSRVTISVDTSKNQFSLKLSSVTAADTAVYYCARDYGADYWGQGTLVAVSA
VL: DIQMTQSPSSLSASVGDRVTITCRASQGIRNDLGWYQQKPGKAPKRLIYSASSLQRGVPSRFSGSGSGTEFTLTISSLQPEDFATYYCLQHKRYPLTFGGGTKVEIK
notes: as for B1
On to B8, for which the binding result with Human ASGR-2 is on record as “no binding”; in the test with Cyno ASGR-1, “binds”; with Mouse ASGR-1 it was “no binding”; in the test with Rat ASGR-1, “no binding”.

B9: 22G5 (antibody, V domains shown)
VH: EVQLLESGGGLVQPGGSLRLSCAASGFTFSSYAMNWVRQAPGMGLEWVSVISRSGGYTYYADSVKGRFTISRDNSKNTLYLQMNSLRAEDTAVYYCASRLAVAGSEAFDIWGQGTLVTVSS
VL: DIQMTQSPSSLSASVGDRVTITCRASQNISSYLNWYQQKQGKAPKLLIYAASSLQNGVPSRFSGRGSGTDFTLTISSLQPEDFATYYCQQSYRTPLFTFGPGTKVDFK
notes: as for B1
B9: the binding result with Human ASGR-2 is given as “no binding”; with Cyno ASGR-1, “binds”; with Mouse ASGR-1, “no binding”; with Rat ASGR-1, “no binding”.

B10: 4A2 (antibody, V domains shown)
VH: QVQLVQSGTEVKKPGASVKVSCKASGYTFTNYDINWVRQATGQGLEWMGWMHPNSGNTGYAQKFQGRVTLTRNTSISTAYMELSSLRSEDTAVYYCASSSGWYYFDYWGQGTLVTVSS
VL: DIVMTQSPDSLAVSLGERATINCKSSQSILHSSNNNNYLAWFQQKPGQPPKLLLYWASTRESGVPDRFSGSGSGTDFTLTISSLQPEDVAVYYCQQYYNTPVTFGPGTKVGIK
notes: as for B1
Turning to B10, the binding result with Human ASGR-2 was “no binding”; with Cyno ASGR-1, “binds”; with Pig ASGR-1 it was “binds”; with Mouse ASGR-1, “no binding”.
